The text below walks through data of patent publication US20190248902A1 (published 2019).

Assay [1] deals with T1, human ASGR-1 mutant construct H203 (human, UniProt P07306 1-291).
T1 construct: Arg/Glu scanning: non-arginine residues were changed to arginine; Transiently expressed on CHO-S cells
T1 sequence: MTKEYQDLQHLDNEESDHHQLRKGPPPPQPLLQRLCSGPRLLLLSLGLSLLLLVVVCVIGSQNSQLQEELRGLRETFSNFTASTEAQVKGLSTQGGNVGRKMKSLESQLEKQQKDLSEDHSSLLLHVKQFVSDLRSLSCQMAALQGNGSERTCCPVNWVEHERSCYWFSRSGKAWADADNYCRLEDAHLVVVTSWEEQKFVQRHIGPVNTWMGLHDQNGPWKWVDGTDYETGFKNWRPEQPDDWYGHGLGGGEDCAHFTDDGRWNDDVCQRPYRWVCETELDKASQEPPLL
Kind of assay: FACS, transfected CHO-S cells, mAb 5 ug/ml. An outline of the steps: (§1)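 Transiently transfected CHO-S cells expressing wild-type or mutant hASGR-1 incubated with antibody at 5 ug/ml, 1 h at 4 °C; bound antibody detected by Alexa Fluor 647 anti-Fc plus 7-AAD, by flow cytometry. Binding normalized to expression using an unaffected antibody (65C12), then to wild type; hits defined as >3× IQR above third quartile.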
On the technique in general: Flow cytometry measures light scatter and fluorescence of single cells or particles in a stream.

The target of assay [2] is T2, human ASGR-1 (wild type) (human, UniProt P07306 1-291).
T2 construct: also called wt ASGR1; huASGR-1
T2 sequence: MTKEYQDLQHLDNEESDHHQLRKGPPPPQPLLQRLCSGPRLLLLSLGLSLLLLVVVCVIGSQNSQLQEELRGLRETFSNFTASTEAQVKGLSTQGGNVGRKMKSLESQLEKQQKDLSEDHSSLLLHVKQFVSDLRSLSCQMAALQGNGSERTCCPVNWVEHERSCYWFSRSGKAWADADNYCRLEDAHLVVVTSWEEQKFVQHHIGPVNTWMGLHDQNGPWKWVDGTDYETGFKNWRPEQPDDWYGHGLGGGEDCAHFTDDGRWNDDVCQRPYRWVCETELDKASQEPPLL
Kind of assay: FACS, transfected CHO-S cells, mAb 5 ug/ml. An outline of the steps:
as §1

Assay [3] has as its target T2, human ASGR-1 (wild type). The assay is described as follows: flow cytometry, CHO-S:huASGR-1 cells, 11-point titration. How it is done: CHO—S stable high-expressing cell line were developed for both human ASGR-1 as well as mouse ASGR-1. A typical 384 well plate multiplex flow cytometery-based cell binding method is described as followed: Parental CHO—S cells and CHO—S:huASGR-1 cells were respectively labeled using a CellTrace CFSE Cell Proliferation Kit (ThermoFisher Catalog #C34554) and CellTrace Violet Cell Proliferation Kit (ThermoFisher Catalog#C34557) CHO—S:muASGR-1 were not labeled. 20 ul of cells at 4C were added to duplicate wells of the 384 well plate. The cells were equally mixed from all three cell lines (30K cells/well). Then 20 ul of the ASGR-1 antibodies (either purified from hybridoma supernatants or made recombinantly) were added in an 11-point dose response using a 1:2 fold serial dilution starting at 100 nM. The cells and antibodies were incubated for 30 min at 4C and then spun down and washed twice with FACS buffer containing 1 mM CaCl2. 30 ul of anti-hulgG-APC secondary antibodies were then added at a 1:1000 dilution) for 30 min at 4C and then washed once with the same buffer. 60 ul of PI (1:1000) was added and then the cells were read by a core flow cytometry facility. The cells were gated first for live cells, then for single cells and finally for the cell dyes to separate the mixed cells into the three different cell populations. Histograms of signal vs count representing the binding profile of each antibody at each antibody concentration were automatically analyzed for the median of the binding signal and then a binding graph was made with log 10 antibody concentration in nM on the X axis with […] from the duplicate wells on the Y-axis. The binding curves were fit with a standard four parameter sigmoidal binding curve and EC50's reported for all graphs with full curves.

Assay [4] concerns the target T3, soluble human ASGR-1 carbohydrate binding domain (CBD; amino acid residues 154-281; N-terminal 6xHis tag) (human, UniProt P07306 154-281).
T3 construct: also called ASGR-1 CBD
T3 sequence: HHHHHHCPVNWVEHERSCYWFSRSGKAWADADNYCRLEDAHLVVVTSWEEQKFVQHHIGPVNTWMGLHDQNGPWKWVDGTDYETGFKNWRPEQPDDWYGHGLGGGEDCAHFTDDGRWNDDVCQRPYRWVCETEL
The assay is described as follows: Octet BLI, mAb on AR2G tips, 1:1 fit. The source says:
To quantitate the binding affinity of specific antibodies for ASGR-1 (either purified from hybridoma supernatants or made recombinantly), association and dissociation rates can be measured using a ForteBio Octet instrument. […] Experimental kinetic results were globally fit to a 1:1 binding model in order to determine the association and dissociation rate constants as well as the equilibrium dissociation constant. Association and dissociation times were chosen to ensure that curvature was present during association curves and measured dissociation levels dropped at least 5% from starting levels. All Octet buffers contained 10 mM Tris (pH7.5), 150 mM NaCl, 1 mM CaCl₂), 0.10 mg/ml BSA and 0.13% Triton X-100. Octet assays were run at 27° C. Because this assay only measures binding to the ASGR-1 CBD, antibodies that recognize epitopes partially or entirely outside the CBD and/or recognize ASGR-1 in the context of a native ASGR complex, for example, as could occur on cell membranes, may not score as positive in this assay.
Background: In BLI a coated tip is dipped into the sample, and binding shifts an interference pattern.

A word on the EC50: it is the concentration giving half of the maximal effect. Broadly, the Kd is the constant that tells how readily two partners part at equilibrium. The low end stands for tighter binding, the high end for weaker binding.

B1: 5E5 (antibody, V domains shown)
VH: QVQLVESGGGVVQPGRSLRLSCAASGFTFSNYVMHWVRQAPGKGLEWVAVIWYDGSNKYYADSVKGRFTISRDNSKNTLYLQMNSLRAEDTAVYYCTREVYSSGWYDYGMDVWGQGTTVTVSS
VL: DIQMTQSPSSLSASVGDRVTITCRASQGIRNDLGWYQQKPGKAPKRLIYAASSLQSGVPSRFSGSGSGTEFTLTISSLQPEDFATYYCLQHYSYPRTFGQGTKVEVK
notes: mAb
For B1, the entries for the “FACS Binding Geomean” value (in assay [1]; in the assay with human ASGR-1 (wild type) [2]) were 12600 and 40700, respectively. The molecule further displayed an EC50 in the assay with human ASGR-1 (wild type) [3] of 3.8 nM. Moreover, the Kd in assay [4] worked out at 7.6 nM.

B2: 7G4 (antibody, V domains shown)
VH: QVQLVESGGGVVQPGRSLRLSCAASGFTFNNYVMHWVRQAPGKGLEWVAVIWYDGSNKYYADSVKGRFTISRDNSKNTLYLQMTSLRAEDTAVYYCAREKYSSNWYDYGMDVWGQGTTVTVSS
VL: DIQMTQSPSSLSASVGDRVTITCRASQGIRNDLGWYQQRPGKAPKRLIYAASSLQSGVPSRFSGSGSGTEFTLTISSLQPEDSATYYCLHQYSYPRTFGQGTKVEIK
notes: mAb
On to B2, for which the “FACS Binding Geomean” value in assay [1] was found to be 18500; with human ASGR-1 (wild type) [2], 48500. The molecule further came in with an EC50 with human ASGR-1 (wild type) [3] of 0.69 nM. Also, the Kd in assay [4] stood at 0.9 nM.

B3: 7E11 (antibody, V domains shown)
VH: QVQLVESGGGVVQPGRSLRLSCAASGFTFSSFGMHWVRQAPGKGLEWVAIIWHDGSNKYYADSVKGRFTISRDNSNNTLYLQMSSLRAEDTAVYYCARDLSMGGMDVWGQGTTVTVSS
VL: DIQMTQSPSSLSASVGDRVTIACRASQNIISYLNWYQQKPGKAPKFLIYTASSLQSGVPSRFSGSGSGTDFTLTISSLQPEDFAIYYCQQTYSTPLTFGGGTKVEIK
notes: mAb
As for B3, the “FACS Binding Geomean” value in assay [1] was 14700; with human ASGR-1 (wild type) [2], 45500. In the assay with human ASGR-1 (wild type) [3], the response was half-maximal at 1.4 nM (EC50). Besides, the Kd in assay [4] amounted to 1.6 nM.

B4: 4A2 (antibody, V domains shown)
VH: QVQLVQSGTEVKKPGASVKVSCKASGYTFTNYDINWVRQATGQGLEWMGWMHPNSGNTGYAQKFQGRVTLTRNTSISTAYMELSSLRSEDTAVYYCASSSGWYYFDYWGQGTLVTVSS
VL: DIVMTQSPDSLAVSLGERATINCKSSQSILHSSNNNNYLAWFQQKPGQPPKLLLYWASTRESGVPDRFSGSGSGTDFTLTISSLQPEDVAVYYCQQYYNTPVTFGPGTKVGIK
notes: mAb
Turning to B4, the “FACS Binding Geomean” value came out at 18900 in assay [1] and 41100 with human ASGR-1 (wild type) [2]. The same molecule displayed an EC50 in the assay with human ASGR-1 (wild type) [3] of 0.82 nM. This molecule came in with a Kd in assay [4] of 0.06 nM.

B5: 26C4 (antibody, V domains shown)
VH: QVQLVQSGAEVKKPGASVKVSCKASGYTFTNYDINWVRQASGQGLEWMGWMNPNSGNTGYAQRFQGRVTMTRNTSINTAYMELSSLRSEDTAVYYCASSSGWYYFDYWGQGTLVTVSS
VL: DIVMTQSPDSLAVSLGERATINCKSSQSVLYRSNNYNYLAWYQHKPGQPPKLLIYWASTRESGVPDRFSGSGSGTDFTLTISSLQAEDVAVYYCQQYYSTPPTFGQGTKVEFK
notes: mAb
For B5, the “FACS Binding Geomean” value in assay [1] is 13500; with human ASGR-1 (wild type) [2] it was 46000. In the assay with human ASGR-1 (wild type) [3], this molecule came in with a concentration giving a half-maximal response (EC50) of 11 nM. This molecule also gave a Kd in assay [4] of 0.4 nM.

B6: 29H8 (antibody, V domains shown)
VH: QVQLVQSGAEVQKPGASVKVSCKASGYTFTNYDINWVRQATGQGLEWMGWMNPNSGNTGYAQRFQGRVTMTRNTSISAAYMELSSLRSEDTAVYYCASSSGWYYFDYWGQGTLVTVSS
VL: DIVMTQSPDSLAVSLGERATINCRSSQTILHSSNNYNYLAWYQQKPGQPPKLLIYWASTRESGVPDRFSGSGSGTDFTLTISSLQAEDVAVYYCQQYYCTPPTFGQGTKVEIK
notes: mAb
For B6, the entries for the “FACS Binding Geomean” value (in assay [1]; with human ASGR-1 (wild type) [2]) were 13200 and 40900, respectively. For the same molecule, the response in the assay with human ASGR-1 (wild type) [3] was half-maximal at 1.9 nM (EC50). In assay [4], the Kd was 1 nM.

B7: 56E5 (antibody, V domains shown)
VH: QVQLVQSGAEVKKPGASVKVSCQASGYTFTGYHMHWVRQAPGQGLEWMGWINPNNNATNYAQKFQGRVTMTRDTSISTAYMELRRLRSDDTAVYHCARDGTSSFDYWGQGTLVTVSS
VL: DIQMTQSPSSVSASVGDRVTITCRASQGIRKWLAWYQQKPGKAPKLLIYAASSLQSGVPSRFSGSGSGTDFTLTISSLQPEDFATYYCQQANSFPFTFGPGTKVDIK
notes: mAb
Take B7: the “FACS Binding Geomean” value in assay [1] was determined as 20300; in the assay with human ASGR-1 (wild type) [2], 42600. The molecule also displayed an EC50 with human ASGR-1 (wild type) [3] of 1.1 nM. In assay [4], the Kd was 0.5 nM.
